In publication PMC9270245, “A metal ion–dependent conformational switch modulates activity of the Plasmodium M17 aminopeptidase” (The Journal of Biological Chemistry, 2022):
Where a chain is given by its changes, count along the chain named. Numbers in names are those of the source.

B1: M17 aminopeptidase from Plasmodium falciparum, wildtype (truncated, amino acids 85-605) (enzyme, UniProt Q8IL11 85-605, looked up)
chain: ASEVPQVVSLDPTSIPIEYNTPIHDIKVQVYDIKGGCNVEEGLTIFLVNNPGKENGPVKISSKVNDKNVSEFLKDENMEKFNVKLGTSKHFYMFNDNKNSVAVGYVGCGSVADLSEADMKRVVLSLVTMLHDNKLSKLTVVFEINVDKNLFRFFLETLFYEYMTDERFKSTDKNVNMEYIKHLGVYINNADTYKEEVEKARVYYFGTYYASQLIAAPSNYCNPVSLSNAAVELAQKLNLEYKILGVKELEELKMGAYLSVGKGSMYPNKFIHLTYKSKGDVKKKIALVGKGITFDSGGYNLKAAPGSMIDLMKFDMSGCAAVLGCAYCVGTLKPENVEIHFLSAVCENMVSKNSYRPGDIITASNGKTIEVGNTDAEGRLTLADALVYAEKLGVDYIVDIATLTGAMLYSLGTSYAGVFGNNEELINKILNSSKTSNEPVWWLPIINEYRATLNSKYADINNISSSVKASSIVASLFLKEFVQNTAWAHIDIAGVSWNFKARKPKGFGVRLLTEFVLNDAL
notes: Homohexamer, a dimer of trimers; also called PfA-M17; wildtype PfA-M17; source: E. coli BL21(DE3), autoinduction, purified (nickel-nitrilotriacetic acid agarose, gel filtration on Superdex S200)
B2: PfA-M17 (A387P) (enzyme)
chain: B1 chain with A303P
notes: M17 aminopeptidase of Plasmodium falciparum, amino acids 85-605, with a proline in place of Ala387 by site-directed mutagenesis (PCR); the PDB entries hold the wildtype parent; source: E. coli BL21(DE3), autoinduction, purified (nickel-nitrilotriacetic acid agarose, gel filtration on Superdex S200)

Biological target: the molecule itself
Assay: SEC; analytical gel filtration, 100 ug purified protein, Superdex S200 Increase 10/300, 50 mM Hepes (pH 8.0), 300 mM NaCl, 1 mM MnCl2; approximate molecular weight by interpolation of a standard curve

Row | Protein | stoichiometry N
1 | B1 | 6
2 | B2 | 6
